Legend:
[1] = Coupled-enzyme reverse glycosylation assay with NmLgtA and LacβMU; type: biochemical; settings: His6-Δ80PmHS2 +, UDP-GlcNAc −
Method: Coupled-enzyme reverse glycosylation assay. […] Reactions were stopped by heating reaction mixtures at 70° C. for 10 min followed by incubation on ice for 30 min and centrifuged at 11,337 g for 15 min.

[2] = Protein expression and purification; set-up: species or system E. coli BL21 (DE3); settings: per L culture
Method: Protein expression and purification. The plasmid-bearing E. coli BL21(DE3) cells were cultured in 1 L of LB-rich media (10 g/L tryptone, 5 g/L yeast extract and 10 g/L NaCl) supplemented with ampicillin (100 μg/mL). Expression of the target protein was achieved by inducing the E. coli culture with 0.1 mM of isopropyl-1-thio-β-D-galactopyranoside (IPTG) when OD600 nm reached 0.8-1.0, followed by incubating at 20° C. for 20 h with shaking at 250 rpm in a C25KC incubator shaker (New Brunswick Scientific, Edison, N.J.). Histidine-tagged target proteins were purified from cell lysate. To obtain the cell lysate, cell pellet harvested by centrifugation at 2,795 g for 50 min was resuspended (25 mL/L cell culture) in lysis buffer (Tris-HCl, 100 mM, pH 8.0 with 0.1% Triton X-100). Sonication protocol was 2 s (sonication)/3 s (rest) for a total of 6 min on ice. Lysed cells were centrifuged at 5,000 g for 50 min and the supernatant (lysate) was collected. Purification of histidine-tagged proteins from the lysate was achieved using a Ni′-resin column. The column was pre-equilibrated with 10 column volumes of binding buffer (5 mM imidazole, 0.5 M NaCl, 50 mM Tris-HCl, pH 7.5). The lysate was then loaded, and the column was washed with 10 column volumes of binding buffer and 10 column volumes of washing buffer (16 mM imidazole, 0.5 M NaCl, 50 mM Tris-HCl, pH 7.5). The target protein was eluted with Tris-HCl buffer (50 mM, pH 7.5) containing imidazole (200 mM) and NaCl (0.5 M). The fractions containing the purified enzymes were collected, and stored at 4° C.

[3] = Effect of UDP concentration on reverse glycosylation activity; type: biochemical; settings: O6 1 mM, enzyme 15 μM
Method: Reactions were stopped by heating reaction mixtures at 70° C. for 10 min followed by incubation on ice for 30 min, and centrifugation at 11,337 g for 15 min. Supernatants were analyzed using an Infinity 1290 II HPLC equipped with 1260 Infinity II Diode Array Detector WR (monitored at 254 nm, Agilent Technologies, CA). An AdvanceBio Glycan Mapping column (1.8 μm particle, 2.1×150 mm, Agilent Technologies, CA) was used with a gradient (13 min) of 0.5 mL/min for 90% to 70% acetonitrile and a solution of water with 0.1% TFA for analysis.

Isoelectric point (pI) = type: physicochemical
[4] = Relative activity comparison with acceptor GlcAβProNHFmoc (O1) and UDP-GlcNAc; type: biochemical; settings: for GlcNAcα1-4GlcAβProNHFmoc (%): percentage conversion, 30 min, HPLC
Method: (§1) Reactions were stopped by heating reaction mixtures at 70° C. for 10 min, followed by incubation on ice for 30 min and centrifugation at 11,337 g for 15 min.

[5] = Survival of lyophilization assay; type: physicochemical; settings: dialysis, rehydration, compared with freshly prepared enzyme
Method: Survival of lyophilization assays. […] The resulting powders were stored at −80° C. for 3 days. For activity assays, the dried powder was dissolved in water. […] Chromatographic separation and detection were achieved similarly as described above for the kinetics studies except that an isocratic flow (0.3 mL/min) of a mixed solvent (32% acetonitrile/68% water with 0.1% TFA) was used for elution.

Thermostability assay = type: physicochemical; settings: 30 min incubation at 25-50 °C
Method: Thermostability assays. […] UHPLC detection was carried out similarly as described above for kinetics studies.

[6] = Relative activity comparison with acceptor GlcNAcαProNHFmoc and UDP-GlcA; type: biochemical; settings: enzyme 1.5 mg/mL; percentage conversion, 30 min, HPLC
Method: as §1

[7] = Behaviour during dialysis; type: physicochemical

B1: His6-Δ80PmHS2: N-terminal His6-tagged and N-terminal 80 amino acid-truncated PmHS2 (SEQ ID NO:3) (protein)
chain: MGSSHHHHHHSFEKIYTYNQALEAKLEKDKQTTSITDLYNEVAKSDLGLVKETNSANPLVSIIMTSHNTAQFIEASINSLLLQTYKNIEIIIVDDDSSDNTFEIASRIANTTSKVRVFRLNSNLGTYFAKNTGILKSKGDIIFFQDSDDVCHHERIERCVNILLANKETIAVRCAYSRLAPETQHIIKVNNMDYRLGFITLGMHRKVFQEIGFFNCTTKGSDDEFFHRIAKYYGKEKIKNLLLPLYYNTMRENSLFTDMVEWIDNHNIIQKMSDTRQHYATLFQAMHNETASHDFKNLFQFPRIYDALPVPQEMSKLSNPKIPVYINICSIPSRIAQLQRIIGILKNQCDHFHIYLDGYVEIPDFIKNLGNKATVVHCKDKDNSIRDNGKFILLEELIEKNQDGYYITCDDDIIYPSDYINTMIKKLNEYDDKAVIGLHGILFPSRMTKYFSADRLVYSFYKPLEKDKAVNVLGTGTVSFRVSLFNQFSLSDFTHSGMADIYFSLLCKKNNILQICISRPANWLTEDNRDSETLYHQYRDNDEQQTQLIMENGPWGYSSIYPLVKNHPKFTDLIPCLPFYFL
modifications: N-terminal His6 tag
With B1 the “GlcNAcβ1-3LacβMU (%)” value ([1]; Reaction 1: NmLgtA +, UDP +) was 9.7 ± 0.6%, the “LacβMU (%)” value ([1]; Reaction 1: NmLgtA +, UDP +) was 90.3 ± 0.6% and the “O2 (%)” value ([1]; Reaction 1: NmLgtA +, UDP +) was 9.3%. For the same molecule, the “O3 (%)” value ([1]; Reaction 1: NmLgtA +, UDP +) was 1.0%, the “O4 (%)” value ([1]; Reaction 1: NmLgtA +, UDP +) was 16.2% and the “O5 (%)” value ([1]; Reaction 1: NmLgtA +, UDP +) was 4.4%. The “O6 (%)” value ([1]; Reaction 1: NmLgtA +, UDP +) was 36.2%, the “O7 (%)” value ([1]; Reaction 1: NmLgtA +, UDP +) was 3.0% and the “O8 (%)” value ([1]; Reaction 1: NmLgtA +, UDP +) was 20.4%. The “O9 (%)” value ([1]; Reaction 1: NmLgtA +, UDP +) was 0.6%, the “O10 (%)” value ([1]; Reaction 1: NmLgtA +, UDP +) was 7.3% and the “O12 (%)” value ([1]; Reaction 1: NmLgtA +, UDP +) was 1.7%. The “LacβMU (%)” value ([1]; Reaction 2: NmLgtA −, UDP +) was 100%, the “O2 (%)” value ([1]; Reaction 2: NmLgtA −, UDP +) was 11.4% and the “O3 (%)” value ([1]; Reaction 2: NmLgtA −, UDP +) was 0.7%. For the same molecule, the “O4 (%)” value ([1]; Reaction 2: NmLgtA −, UDP +) was 23.7%, the “O5 (%)” value ([1]; Reaction 2: NmLgtA −, UDP +) was 5.1% and the “O6 (%)” value ([1]; Reaction 2: NmLgtA −, UDP +) was 35.1%. For the same molecule, the “O7 (%)” value ([1]; Reaction 2: NmLgtA −, UDP +) was 1.2%, the “O8 (%)” value ([1]; Reaction 2: NmLgtA −, UDP +) was 15.8% and the “O9 (%)” value ([1]; Reaction 2: NmLgtA −, UDP +) was 0.5%. The “O10 (%)” value ([1]; Reaction 2: NmLgtA −, UDP +) was 5.1%, the “O12 (%)” value ([1]; Reaction 2: NmLgtA −, UDP +) was 1.2% and the “LacβMU (%)” value ([1]; Reaction 4: NmLgtA +, UDP −) was 100%. For the same molecule, the “O6 (%)” value ([1]; Reaction 4: NmLgtA +, UDP −) was 100%, the expression level [2] was 60 to 80 mg/L and the “O6 (%)” value ([3]; UDP 0 (nM)) was 100%. The “O4 (%)” value ([3]; UDP 1 (nM)) was 6.7%, the “O5 (%)” value ([3]; UDP 1 (nM)) was 2.6% and the “O6 (%)” value ([3]; UDP 1 (nM)) was 81.6%. For the same molecule, the “O8 (%)” value ([3]; UDP 1 (nM)) was 7.9%, the “O10 (%)” value ([3]; UDP 1 (nM)) was 0.8% and the “O1 (%)” value ([3]; UDP 5 (nM)) was 3.4%. For the same molecule, the “O2 (%)” value ([3]; UDP 5 (nM)) was 1.5%, the “O3 (%)” value ([3]; UDP 5 (nM)) was 0.6% and the “O4 (%)” value ([3]; UDP 5 (nM)) was 16.9%. The “O5 (%)” value ([3]; UDP 5 (nM)) was 4.2%, the “O6 (%)” value ([3]; UDP 5 (nM)) was 58.0% and the “O7 (%)” value ([3]; UDP 5 (nM)) was 0.4%. The “O8 (%)” value ([3]; UDP 5 (nM)) was 12.8%, the “O10 (%)” value ([3]; UDP 5 (nM)) was 1.9% and the “O12 (%)” value ([3]; UDP 5 (nM)) was 0.2%. For the same molecule, the “O1 (%)” value ([3]; UDP 10 (nM)) was 3.4%, the “O2 (%)” value ([3]; UDP 10 (nM)) was 7.8% and the “O3 (%)” value ([3]; UDP 10 (nM)) was 1.5%. The “O4 (%)” value ([3]; UDP 10 (nM)) was 18.9%, the “O5 (%)” value ([3]; UDP 10 (nM)) was 3.8% and the “O6 (%)” value ([3]; UDP 10 (nM)) was 38.0%. For the same molecule, the “O7 (%)” value ([3]; UDP 10 (nM)) was 1.8%, the “O8 (%)” value ([3]; UDP 10 (nM)) was 18.6% and the “O9 (%)” value ([3]; UDP 10 (nM)) was 0.7%. The “O10 (%)” value ([3]; UDP 10 (nM)) was 4.2%, the “O12 (%)” value ([3]; UDP 10 (nM)) was 1.1% and the pI (Isoelectric point (pI)) was 6.61. The “efficiency of GlcAβProNHFmoc (O1) over GlcNAcαProNHFmoc as substrate in disaccharide production” value [4] was 130 fold, the “GlcNAcα1-4GlcAβProNHFmoc (%)” value ([4]; enzyme 0.06 mg/mL) was 50.8 ± 6.0% and the “GlcNAcα1-4GlcAβProNHFmoc (%)” value ([4]; enzyme 1.5 mg/mL) was 100%. For the same molecule, the activity after lyophilization [5] was “without loss of activity”, the “increase of Tso (temperature at which the enzyme retains 50% of maximum activity) compared to WT” value (Thermostability assay) was “approximately 7 °C” and the “GlcAβ1-4GlcNAcαProNHFmoc (%)” value [6] was 9.8 ± 0.4%. For the same molecule, the behaviour during dialysis [7] was “remained soluble”.

From patent publication US11441131B2, “Heparosan synthases and use thereof for saccharide synthesis” (The Regents of the University of California, priority 2019, dated 2022)
